In data set [1] the test system is middle cerebral artery occlusion (MCAO) in rats. The data set can be described thus: 90 min middle cerebral artery occlusion with r-TPA 10 mg/kg infusion; brains dissected 4.5 h after reperfusion (Example 2). Format: in vivo, rat. Here is the method:
Rats were given 10 mg/kg of r-TPA, which is considered equivalent to the typical dose given to humans in thrombolysis in stroke and myocardial infarction. Two timings of r-TPA were used to investigate in rat brain the hemorrhagic conversion of infarction, the single most serious complication and hazard in clinical thrombolytic therapy. The group termed r-TPA+saline received 1-hour infusiuon of r-TPA starting 5 minutes (10% as bolus) prior to reperfusion after 90 min of middle cerebral artery occlusion (MCAO), whereas the group saline+r-TPA received r-TPA starting 1 hour after the reperfusion after 90 min of MCAO. […] Brains were dissected at 4.5 hours after reperfusion. Areas of hemorrhage were measured by microscopical image analysis on six histological sections cut through the hemispheres and added together (cf. FIG. 3)
The polymorphonuclear leukocytes (neutrophils, shown in bars, left Y-axis, of FIG. 4) were calculated on the section encompassing the basal ganglia, infarct core and penumbra.
They were also treated with 10 mg/kg of r-TPA in a 1-hour infusion starting […] (10% as bolus) before reperfusion, a dose equivalent to that used clinically in thrombolysis of human stroke and myocardial infarction. Brains were dissected at 4.5 hours after reperfusion. The amount of brain edema was measured by quantitating the areas of hemispheres on histological sections with microscopical image analysis.
In the lower panel, the total area of hemorrhagic conversion was quantitated in six sections cut through the hemispheres.

In data set [2] the test system is rat peritoneal mast cells. The data set can be described thus: Degranulation of rat peritoneal mast cells ex vivo. Format: cell-based.
The subject of data set [3] is spontaneous intraventricular bleedings. The note with it: in vivo; cited from earlier work.

Entries after “also recorded” stand apart in the source; their conditions may differ.

In the case of “r-TPA: alteplase (recombinant tissue plasminogen activator), a serine protease leading to plasmin formation”, the neutrophil density entry in data set [1] (both r-TPA groups compared to sham-operated rats) is on record as “significantly increased”. Further, the “hemorrhage formation in rat brain” value in data set [1] (r-TPA 10 mg/kg, started 5 min before or 1 hour after reperfusion, vs sham operated or saline-treated controls) was “substantial hemorrhage formation; also recorded: significant hemorrhage formation”. Further, in data set [1] (r-TPA infusion), the “increase in total number of neutrophils in the tissue, ischemic hemisphere” value is reported as “up to 3 fold” and the “increase in total number of neutrophils in the tissue, non-infarcted hemisphere” value was “up to 5 fold”. Besides, the “degranulation of cells consistent with mast cell morphology, non-ischemic hemisphere” value in data set [1] (r-TPA infusion 5 minutes before reperfusion, 90 minute ischemia) is recorded as “up to 60%”. In addition, in data set [1] (r-TPA infusion 5 minutes before reperfusion, 90 minute ischemia, up to 50% without r-TPA), the “degranulation of cells consistent with mast cell morphology, ischemic hemisphere” value is given as “up to 70%”. Moreover, the “degranulation of rat peritoneal mast cells” value in data set [2] was “degranulated”. For the same substance, in data set [3], the “rates of secondary brain hemorrhages” value is recorded as “more than doubles”.

These data come from US8163734B2, “Use of a mast cell activation or degranulation blocking agent in the manufacture of a medicament for the treatment of a patient subjected to thrombolyses” (priority 2004, dated 2012).
